Here are results for one substance from patent US20210063414A1, “METHODS FOR PREVENTING AND/OR TREATING BONE LOSS CONDITIONS BY MODULATING IRISIN” (Dana-Farber Cancer Institute, Inc., priority 2018, published 2021).

In test [1] the target is T1, MLO-Y4 cell surface proteins (Mus musculus, UniProt P97350).
T1 construct: endogenous in cells; host or cells: MLO-Y4
T1 sequence (P97350 1-728): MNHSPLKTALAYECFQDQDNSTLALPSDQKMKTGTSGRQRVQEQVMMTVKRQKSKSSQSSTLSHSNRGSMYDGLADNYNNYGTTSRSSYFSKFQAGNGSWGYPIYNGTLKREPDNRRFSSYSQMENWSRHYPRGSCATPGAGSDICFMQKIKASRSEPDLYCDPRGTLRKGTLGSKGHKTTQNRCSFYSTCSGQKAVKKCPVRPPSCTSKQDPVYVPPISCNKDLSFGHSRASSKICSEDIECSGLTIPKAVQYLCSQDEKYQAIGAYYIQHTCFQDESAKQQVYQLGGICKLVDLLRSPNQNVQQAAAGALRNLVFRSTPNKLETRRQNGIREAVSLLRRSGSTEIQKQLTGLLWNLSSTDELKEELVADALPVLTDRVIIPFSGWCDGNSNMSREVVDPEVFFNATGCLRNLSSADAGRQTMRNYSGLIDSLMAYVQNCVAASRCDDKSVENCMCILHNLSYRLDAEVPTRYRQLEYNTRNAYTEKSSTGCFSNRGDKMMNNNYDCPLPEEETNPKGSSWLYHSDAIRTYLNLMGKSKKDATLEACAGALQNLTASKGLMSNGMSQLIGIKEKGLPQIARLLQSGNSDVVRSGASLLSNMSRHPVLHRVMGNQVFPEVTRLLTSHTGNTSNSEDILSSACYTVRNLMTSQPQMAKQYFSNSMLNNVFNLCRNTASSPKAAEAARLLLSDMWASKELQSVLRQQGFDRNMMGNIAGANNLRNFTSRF
The experiment in a line: Crosslinking/co-immunoprecipitation/mass spectrometry (TMT quantitative proteomics) to identify irisin receptors. Particulars: co-precipitated protein Pkp1 (PKP1_MOUSE). The format is binding. An outline of the steps:
(§1)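 Relative protein abundance came from 6-plex TMT MS3 quantitation on an Orbitrap Fusion Lumos, after in-gel trypsin digestion of Coomassie-stained SDS-PAGE lanes. Input was a Ni-NTA pulldown (250 mM imidazole elution) of lysates from murine MLO-Y4 cells. These cells were treated on ice with His-tagged irisin or adipsin (10 nM, 20 min) in serum-free medium, then crosslinked with 1.5 mM DTSSP for 30 min.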

For test [2], the target named is T2, MLO-Y4 cell surface proteins (Mus musculus, UniProt Q9JHS4).
T2 construct: endogenous in cells; host or cells: MLO-Y4
The description is as above. In kind it is binding. The conditions noted are these: co-precipitated protein Clpx (CLPX_MOUSE). The procedure, abridged: as §1

T2 sequence (Q9JHS4 57-634): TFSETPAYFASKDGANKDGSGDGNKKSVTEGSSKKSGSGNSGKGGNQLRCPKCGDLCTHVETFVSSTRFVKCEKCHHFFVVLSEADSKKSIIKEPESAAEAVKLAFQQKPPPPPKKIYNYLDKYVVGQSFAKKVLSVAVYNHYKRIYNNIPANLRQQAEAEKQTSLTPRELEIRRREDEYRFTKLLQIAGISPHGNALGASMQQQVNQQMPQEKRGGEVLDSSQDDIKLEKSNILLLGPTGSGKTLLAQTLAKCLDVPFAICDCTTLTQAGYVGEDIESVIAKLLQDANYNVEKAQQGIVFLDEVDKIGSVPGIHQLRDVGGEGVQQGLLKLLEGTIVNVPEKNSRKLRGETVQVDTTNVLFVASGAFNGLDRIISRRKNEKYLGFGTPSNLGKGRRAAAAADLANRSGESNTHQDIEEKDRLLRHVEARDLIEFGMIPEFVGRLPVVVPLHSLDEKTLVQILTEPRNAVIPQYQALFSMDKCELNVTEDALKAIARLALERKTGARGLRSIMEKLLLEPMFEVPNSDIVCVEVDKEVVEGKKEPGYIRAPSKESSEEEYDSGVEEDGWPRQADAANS

As for adipsin, the values for the TMT signal-to-noise ratio in test [1] and in test [2] were 98.2846 and 1517.78, respectively.
